Measured values reported in patent publication US20090142377A1.

Columns and labels:
[1] = molecular target: dH5-III (cdH5-0 incubated about 16 h at 47.5 C) (influenza A virus H5N1 strain A/Vietnam/1203/04) (UniProt Q8QPL1); test: ELISA, coated H5 form; scaled
[2] = molecular target: cdH5-0 (supernatant of dH5-0 after 10 minutes centrifugation at 16,000-18,000*g) (influenza A virus H5N1 strain A/Vietnam/1203/04); test: ELISA, coated H5 form; scaled
[3] = molecular target: fdH5-0 (ultrafiltrated dH5-0: flow-through of cdH5-0 through a 1,000 kDa cut-off filter) (influenza A virus H5N1 strain A/Vietnam/1203/04); test: ELISA, coated H5 form; scaled
[4] = molecular target: dH5-II (cdH5-0 heat-cycled at pH 2, back to pH 7) (influenza A virus H5N1 strain A/Vietnam/1203/04) (UniProt Q8QPL1); test: ELISA, coated H5 form; scaled
[5] = molecular target: dH5-I (cdH5-0 heat-cycled at pH 7) (influenza A virus H5N1 strain A/Vietnam/1203/04) (UniProt Q8QPL1); test: ELISA, coated H5 form; scaled
[6] = molecular target: non-treated H5 (nH5) of H5N1 strain A/Vietnam/1203/04 (Protein Sciences) (influenza A virus H5N1 strain A/Vietnam/1203/04); test: ELISA, coated nH5, antibody 1:2000
[7] = molecular target: cross-beta nOVA: ovalbumin (chicken egg-white albumin) dissolved at 1 mg/ml in PBS (chicken) (UniProt P01012); test: ELISA, immobilized OVA form
[8] = molecular target: dOVA-2: ovalbumin 1 mg/ml in PBS, five heat cycles 30 to 85 C (chicken) (UniProt P01012); test: ELISA, immobilized OVA form
[9] = molecular target: dOVA-1: ovalbumin 5.2 mg/ml in HBS, acidified with HCl, 40 minutes at 37 C, neutralized (chicken) (UniProt P01012); test: ELISA, immobilized OVA form
[10] = molecular target: dOVA-3: ovalbumin 1 mg/ml in PBS, about 16 h at 75 C (chicken) (UniProt P01012); test: ELISA, immobilized OVA form
[11] = molecular target: cdH5-0 (supernatant of dH5-0 after 10 minutes centrifugation at 16,000-18,000*g) (influenza A virus H5N1 strain A/Vietnam/1203/04); test: ELISA, immobilized H5; normalized to cdH5-0
[12] = molecular target: fdH5-0 (ultrafiltrated dH5-0: flow-through of cdH5-0 through a 1,000 kDa cut-off filter) (influenza A virus H5N1 strain A/Vietnam/1203/04); test: ELISA, immobilized H5; normalized to cdH5-0
[13] = molecular target: dH5-I (cdH5-0 heat-cycled at pH 7) (influenza A virus H5N1 strain A/Vietnam/1203/04) (UniProt Q8QPL1); test: ELISA, immobilized H5; normalized to cdH5-0
[14] = molecular target: cross-beta nOVA: ovalbumin (chicken egg-white albumin) dissolved at 1 mg/ml in PBS (chicken) (UniProt P01012); test: ELISA, immobilized OVA; normalized to nOVA
[15] = molecular target: cdH5-0 (supernatant of dH5-0 after 10 minutes centrifugation at 16,000-18,000*g) (influenza A virus H5N1 strain A/Vietnam/1203/04); test: ELISA, coated H5 form, tPA series with excess e-amino caproic acid
[16] = molecular target: fdH5-0 (ultrafiltrated dH5-0: flow-through of cdH5-0 through a 1,000 kDa cut-off filter) (influenza A virus H5N1 strain A/Vietnam/1203/04); test: as above

Substance	relative affinity kD [1]	relative affinity kD [2]	relative affinity kD [3]	relative affinity kD [4]	relative affinity kD [5]	relative affinity kD [9]	also measured
HyTest IgG2a clone 8D2, mouse monoclonal anti-H5 antibody	72 a.u.	100 a.u.	125 a.u.	36 a.u.	34 a.u.		
HyTest IgG2a clone 15A6, mouse monoclonal anti-H5 antibody	76 a.u.	100 a.u.	204 a.u.	31 a.u.	105 a.u.		
HyTest clone 17C8, mouse monoclonal anti-H5 antibody	68 a.u.	100 a.u.	128 a.u.	34 a.u.	51 a.u.		
Rockland anti-H5 A/VN/1203/04 mouse monoclonal antibody, catalogue number 200-301-975	78 a.u.	100 a.u.	103 a.u.	79 a.u.	47 a.u.		ELISA signal [6]: 1.5
Rockland anti-H5 A/VN/1203/04 mouse monoclonal antibody, catalogue number 200-301-976	127 a.u.	100 a.u.	105 a.u.	132 a.u.	0 a.u.		
Rockland anti-H5 A/VN/1203/04 mouse monoclonal antibody, catalogue number 200-301-977	35 a.u.	100 a.u.	93 a.u.	0 a.u.	0 a.u.		
Rockland anti-H5 A/VN/1203/04 mouse monoclonal antibody, catalogue number 200-301-978	112 a.u.	100 a.u.	107 a.u.	31 a.u.	115 a.u.		
Rockland anti-H5 A/VN/1203/04 mouse monoclonal antibody, catalogue number 200-301-979	126 a.u.	100 a.u.	97 a.u.	83 a.u.	125 a.u.		
Sigma C6534 anti-OVA antibody						44 a.u.	relative affinity kD [7]: 84.9 a.u.; relative affinity kD [8]: 221 a.u.; relative affinity kD [10]: 287 a.u.
fourth and fifth finger domain of fibronectin (Fn F4-5), with C-terminal FLAG-tag (from UniProt P02751 183-275)							Normalized affinity, kD (%) [11]: 100%; Normalized affinity, kD (%) [12]: 69%; Normalized affinity, kD (%) [13]: 0%; Normalized affinity, kD (%) [14]: 100%
monoclonal anti-OVA IgG (A6075, Sigma) (antibody)						20.8 a.u.	
mouse HYB 099-01 (IgG1) anti-OVA monoclonal antibody						115 a.u.	relative affinity kD [7]: 98.5 a.u.; relative affinity kD [8]: 129 a.u.; relative affinity kD [10]: 80.9 a.u.
mouse HYB 099-02 (IgG1) anti-OVA monoclonal antibody						154 a.u.	relative affinity kD [7]: 103 a.u.; relative affinity kD [8]: 118 a.u.; relative affinity kD [10]: 154 a.u.
mouse HYB 099-09 (IgG1) anti-OVA monoclonal antibody						127 a.u.	relative affinity kD [7]: 71.2 a.u.; relative affinity kD [8]: 85.1 a.u.; relative affinity kD [10]: 164 a.u.
tissue type plasminogen activator (tPA; Actilyse, Boehringer-Ingelheim) (from UniProt P00750 36-562) (enzyme)							Bmax [15]: 0.36; Bmax [16]: 0.37
